# Numbering of substitutions follows the chain as printed. Names may count otherwise.
# B1: Chimera A2 (I129T/N130Y/T131A+∆ P132-T134) of human arginase type I (Homo sapiens; DEL129-131/I129T/L133Y/N130Y/P132T/T134A) (protein)
# chain: MSAKSRTIGIIGAPFSKGQPRGGVEEGPTVLRKAGLLEKLKEQECDVKDYGDLPFADIPNDSPFQIVKNPRSVGKASEQLAGKVAEVKKNGRISLVLGGDHSLAIGSISGHARVHPDLGVIWVDAHTDTYATTSGNLHGQPVSFLLKELKGKIPDVPGFSWVTPCISAKDIVYIGLRDVDPGEHYILKTLGIKYFSMTEVDRLGIGKVMEETLSYLLGRKKRPIHLSFDVDGLDPSFTPATGTPVVGGLTYREGLYITEEIYKTGLLSGLDIMEVNPSLGKTPEEVTRTVNTAVAITLACFGLAREGNHKPIDYLNPPK
# notes: made in house; host or cells: E. coli JM109
# B2: E. coli agmatinase (Escherichia coli K-12) (protein)
# chain: MSTLGHQYDNSLVSNAFGFLRLPMNFQPYDSDADWVITGVPFDMATSGRAGGRHGPAAIRQVSTNLAWEHNRFPWNFDMRERLNVVDCGDLVYAFGDAREMSEKLQAHAEKLLAAGKRMLSFGGDHFVTLPLLRAHAKHFGKMALVHFDAHTDTYANGCEFDHGTMFYTAPKEGLIDPNHSVQIGIRTEFDKDNGFTVLDACQVNDRSVDDVIAQVKQIVGDMPVYLTFDIDCLDPAFAPGTGTPVIGGLTSDRAIKLVRGLKDLNIVGMDVVEVAPAYDQSEITALAAATLALEMLYIQAAKKGE
# B3: human arginase type I S137C-N139D (Homo sapiens; N139D/S137C) (protein)
# chain: MSAKSRTIGIIGAPFSKGQPRGGVEEGPTVLRKAGLLEKLKEQECDVKDYGDLPFADIPNDSPFQIVKNPRSVGKASEQLAGKVAEVKKNGRISLVLGGDHSLAIGSISGHARVHPDLGVIWVDAHTDINTPLTTTCGDLHGQPVSFLLKELKGKIPDVPGFSWVTPCISAKDIVYIGLRDVDPGEHYILKTLGIKYFSMTEVDRLGIGKVMEETLSYLLGRKKRPIHLSFDVDGLDPSFTPATGTPVVGGLTYREGLYITEEIYKTGLLSGLDIMEVNPSLGKTPEEVTRTVNTAVAITLACFGLAREGNHKPIDYLNPPK
# notes: as for B1
# B4: human arginase type I N130D (Homo sapiens; N130D) (protein)
# chain: B3 chain with N130D, C137S, D139N
# notes: as for B1
# B5: human arginase type I N139D (Homo sapiens; N139D) (protein)
# chain: B3 chain with C137S
# notes: as for B1
# B6: human arginase type I N130D-N139D (Homo sapiens; N130D/N139D) (protein)
# chain: B3 chain with N130D, C137S
# notes: as for B1
# B7: human arginase type I S137C (Homo sapiens; S137C) (protein)
# chain: B3 chain with D139N
# notes: as for B1
# B8: human arginase type I N130D-S137C (Homo sapiens; N130D/S137C) (protein)
# chain: B3 chain with N130D, D139N
# notes: as for B1
# B9: human arginase type I N130D-S137C-N139D (Homo sapiens; N130D/N139D/S137C) (protein)
# chain: B3 chain with N130D
# notes: as for B1
# What was measured:
# [1] = substrate: N=C(N)NCCCCN; assay: Kinetic and inhibition studies, Chimera A2; assay type: biochemical, human; conditions: other: substrate = labelled compound, pH 9.5, 2 mM Mn2+
# Protocol: (§1) Bacterial cultures were grown with shaking at 37 °C in Luria Broth media, in the presence of ampicillin (100 μg/mL). The wild-type and mutant human liver arginase cDNAs were directionally cloned into the pBluescript II KS(+) expression vector and then expressed in E. coli JM109, following induction with 1 mM isopropyl β-D-thiogalactopyranoside. The bacterial cells were disrupted by sonication on ice (5 × 30 s pulses), centrifuged for 20 min at 12,000× g, and the obtained supernatant was precipitated with ammonium sulfate (60% saturation). The pellet, collected by centrifugation at 12,000× g for 10 min, was re-suspended in buffer 5 mM Tris–HCl (pH 7.5) containing 2 mM MnCl2 and dialyzed for 6 h at 4 °C against the same buffer. After incubation with 5 mM MnCl2 for 10 min at 60 °C, the enzyme variants were purified as previously described [17]. The purity of the enzymes was evaluated by SDS–PAGE stained by Coomassie blue and immunodetection using an anti- rat arginase I antibody.
# (§2) The single, double, triple, and chimera variants of human arginase type I were obtained by PCR, using the QuickChange site-directed mutagenesis kit (Stratagene, La Jolla, CA, USA); the plasmid pBluescript II KS(+) containing the human liver arginase cDNA was used as template. To obtain the chimeric species of human arginase type I, serial mutations were made in each loop to be modified, using as template DNA the wild-type arginase gene or the previous done mutation, subcloned in the plasmid pBluescript II KS (+).
# (§3) All assays were initiated by adding the enzyme to a previously equilibrated buffer with the substrate in solution (the concentrations of used substrates were between 0.2–3 fold the Km). Urea was determined by a colorimetric method with α-isonitrosopropiophenone [38]. The protein concentrations were determined by the Bradford’s method, with bovine serum albumin as standard. Initial velocity and enzymatic inhibition experiments were performed in duplicate and repeated three times. […]
# [2] = substrate: N=C(N)NCCCCN; assay: Kinetic studies, E. coli agmatinase; assay type: biochemical; conditions: other: substrate = labelled compound; n/a = no activity with the substrate; pH 9.5
# Protocol: All assays were initiated by adding the enzyme to a previously equilibrated buffer with the substrate in solution (the concentrations of used substrates were between 0.2–3 fold the Km). Urea was determined by a colorimetric method with α-isonitrosopropiophenone. The protein concentrations were determined by the Bradford’s method, with bovine serum albumin as standard. Initial velocity and enzymatic inhibition experiments were performed in duplicate and repeated three times. The inhibitory patterns were initially determined by double reciprocal plots and re-plots of intercepts and slopes versus inhibitor concentrations. […] Velocities are expressed as μmol of urea/10 min.
# [3] = substrate: N=C(N)NCCCCN; assay: Kinetic and inhibition studies, S137C-N139D mutant; assay type: biochemical, human; conditions: other: substrate = labelled compound, pH 9.5, 2 mM Mn2+
# Protocol: (§4) All assays were initiated by adding the enzyme to a previously equilibrated buffer with the substrate in solution (the concentrations of used substrates were between 0.2–3 fold the Km). Urea was determined by a colorimetric method with α-isonitrosopropiophenone [38]. […] Initial velocity and enzymatic inhibition experiments were performed in duplicate and repeated three times. The inhibitory patterns were initially determined by double reciprocal plots and re-plots of intercepts and slopes versus inhibitor concentrations. […] Velocities are expressed as μmol of urea/10 min.
# [4] = substrate: N=C(N)NCCCCN; assay: Kinetic and inhibition studies, N130D mutant; assay type: biochemical, human; conditions: other: substrate = labelled compound, pH 9.5, 2 mM Mn2+
# Protocol: as §1, §2, §3
# [5] = substrate: N=C(N)NCCCCN; assay: Kinetic and inhibition studies, N139D mutant; assay type: biochemical, human; conditions: other: substrate = labelled compound, pH 9.5, 2 mM Mn2+
# Protocol: as §1, §2, §3
# [6] = substrate: N=C(N)NCCCCN; assay: Kinetic and inhibition studies, N130D-N139D mutant; assay type: biochemical, human; conditions: other: substrate = labelled compound, pH 9.5, 2 mM Mn2+
# Protocol: as §4
# [7] = substrate: N=C(N)NCCCCN; assay: Kinetic and inhibition studies, S137C mutant; assay type: biochemical, human; conditions: other: substrate = labelled compound, pH 9.5, 2 mM Mn2+
# Protocol: as §1, §2, §3
# [8] = substrate: N=C(N)NCCCCN; assay: Kinetic and inhibition studies, N130D-S137C mutant; assay type: biochemical, human; conditions: other: substrate = labelled compound, pH 9.5, 2 mM Mn2+
# Protocol: as §1, §2, §3
# [9] = substrate: N=C(N)NCCCCN; assay: Kinetic and inhibition studies, triple mutant; assay type: biochemical, human; conditions: other: substrate = labelled compound, pH 9.5, 2 mM Mn2+
# Protocol: as §4
protein,measurement,setting,value
B1,Km,[1],6000 ± 1000 µM
same,kcat,[1],1.1 ± 0.2 s⁻¹
same,kcat/Km,[1],180 M⁻¹ s⁻¹
B2,Km,[2],1100 µM
same,kcat,[2],120 s⁻¹
same,kcat/Km,[2],110000 M⁻¹ s⁻¹
B3,Km,[3],900 µM
same,kcat,[3],1.1 s⁻¹
same,kcat/Km,[3],1200 M⁻¹ s⁻¹
B4,Km,[4],1400 µM
same,kcat,[4],3 s⁻¹
same,kcat/Km,[4],2100 M⁻¹ s⁻¹
B5,Km,[5],5300 µM
same,kcat,[5],1.3 s⁻¹
same,kcat/Km,[5],250 M⁻¹ s⁻¹
B6,Km,[6],1100 µM
same,kcat,[6],1.6 s⁻¹
same,kcat/Km,[6],1400 M⁻¹ s⁻¹
B7,Km,[7],7500 µM
same,kcat,[7],1.8 s⁻¹
same,kcat/Km,[7],240 M⁻¹ s⁻¹
B8,Km,[8],1700 µM
same,kcat,[8],2.3 s⁻¹
same,kcat/Km,[8],1300 M⁻¹ s⁻¹
B9,Km,[9],1600 µM
same,kcat,[9],0.9 s⁻¹
same,kcat/Km,[9],560 M⁻¹ s⁻¹

# — paper PMC9224512, “New Insights into the Determinants of Specificity in Human Type I Arginase: Generation of a Mutant That Is Only Active with Agmatine as Substrate” (International Journal of Molecular Sciences, 2022)
